Source: US20180282425A1
Like-named read-outs stand apart in the source and are kept apart here.

Key:
[1] = molecular target: C5a receptor C5aR (CD88) on human blood neutrophils (human) (UniProt P21730); assay: cell-based or functional assay
[2] = molecular target: C5a receptor C5aR (CD88) on human blood neutrophils (human) (UniProt P21730); assay: cell-based or functional assay; remark: listed apart in the source

C5a receptor C5aR (CD88) on human blood neutrophils (human), sequence (P21730 whole entry): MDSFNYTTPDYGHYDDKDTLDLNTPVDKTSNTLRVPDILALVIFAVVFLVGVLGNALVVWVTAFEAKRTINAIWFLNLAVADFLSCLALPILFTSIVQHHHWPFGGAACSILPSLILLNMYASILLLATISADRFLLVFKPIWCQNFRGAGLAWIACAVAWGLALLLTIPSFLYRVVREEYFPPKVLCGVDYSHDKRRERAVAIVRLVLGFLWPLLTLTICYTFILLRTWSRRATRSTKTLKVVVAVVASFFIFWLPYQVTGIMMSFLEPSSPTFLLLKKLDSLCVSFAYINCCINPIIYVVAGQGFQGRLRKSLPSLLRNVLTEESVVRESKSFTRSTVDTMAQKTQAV

Substance: PMX-53 (peptide)
- Blocking activity (%) on CD11b upregulation; Pat. 088|PMX 53 (20 µM) [1]: 104%
- Blocking activity (%) on CD11b upregulation; Pat. 092|PMX 53 (20 µM) [1]: 109%
- Blocking activity (%) on CD11b upregulation; huPP|rhC5a|PMX 53 (20 µM) [1]: 108%
- CD11b (mean MFI); Pat. 088|PMX 53 (20 µM) [1]: 2030 MFI
- CD11b (mean MFI); Pat. 092|PMX 53 (20 µM) [1]: 1910 MFI
- CD11b (mean MFI); huPP|rhC5a|PMX 53 (20 µM) [1]: 1850 MFI
- Blocking activity (%) on CD11b upregulation; Pat. 088|PMX 53 (50 nM) [2]: 55.5%
- Blocking activity (%) on CD11b upregulation; Pat. 092|PMX 53 (50 nM) [2]: 56.7%
- Blocking activity (%) on CD11b upregulation; huPP|rhC5a|PMX 53 (50 nM) [2]: 50.3%
- CD11b (mean MFI); Pat. 088|PMX 53 (50 nM) [2]: 4730 MFI
- CD11b (mean MFI); Pat. 092|PMX 53 (50 nM) [2]: 4660 MFI
- CD11b (mean MFI); huPP|rhC5a|PMX 53 (50 nM) [2]: 4240 MFI

Substance: anti-C5aR (CD88) antibody Clone 7H110
- Blocking activity (%) on CD11b upregulation; Pat. 088|Clone 7H110 (50 nM) [2]: 75.7%
- Blocking activity (%) on CD11b upregulation; Pat. 092|Clone 7H110 (50 nM) [2]: 78.7%
- Blocking activity (%) on CD11b upregulation; huPP|rhC5a|Clone 7H110 (50 nM) [2]: 70.7%
- CD11b (mean MFI); Pat. 088|Clone 7H110 (50 nM) [2]: 3560 MFI
- CD11b (mean MFI); Pat. 092|Clone 7H110 (50 nM) [2]: 3390 MFI
- CD11b (mean MFI); huPP|rhC5a|Clone 7H110 (50 nM) [2]: 3380 MFI

Substance: anti-C5aR (CD88) antibody Clone S5/1
- Blocking activity (%) on CD11b upregulation; Pat. 088|Clone S5/1 (50 nM) [2]: 72.7%
- Blocking activity (%) on CD11b upregulation; Pat. 092|Clone S5/1 (50 nM) [2]: 75.9%
- Blocking activity (%) on CD11b upregulation; huPP|rhC5a|Clone S5/1 (50 nM) [2]: 73%
- CD11b (mean MFI); Pat. 088|Clone S5/1 (50 nM) [2]: 3740 MFI
- CD11b (mean MFI); Pat. 092|Clone S5/1 (50 nM) [2]: 3560 MFI
- CD11b (mean MFI); huPP|rhC5a|Clone S5/1 (50 nM) [2]: 3290 MFI

Substance: recombinant human C5a (from UniProt P01031 678-751) (ligand)
- CD11b (mean MFI) on blood neutrophils; huPP|rhC5a (20 nM), no blocker [1]: 8330 MFI
- CD11b (mean MFI) on blood neutrophils; huPP|rhC5a (20 nM), no blocker [2]: 6330 MFI
